Data on one molecule can be found in PMC3150355, “TAT-Mediated Transduction of MafA Protein In Utero Results in Enhanced Pancreatic Insulin Expression and Changes in Islet Morphology”.

In this data set the target is TAT-MafA (unphosphorylated, PBS treated) (human, UniProt Q8NHW3 1-353). The experiment in a line: EMSA; unphosphorylated; basal DNA-binding activity; Pierce LightShift chemiluminescent EMSA kit; 200 fmol/ul biotin-DNA, unlabeled competitor 10 pmol/ul, 82.15 ug TAT-MafA; ERK2 or PBS 37 C 1 h, then 20 min binding; buffer, pH and binding temperature not stated. The settings on record: protein: recombinant; TAT PTD (11 aa) and 6xHis, pTAT-2.1 (pET28); chain copies: 2; blunt.
TAT-MafA (unphosphorylated, PBS treated), sequence (Q8NHW3 whole entry): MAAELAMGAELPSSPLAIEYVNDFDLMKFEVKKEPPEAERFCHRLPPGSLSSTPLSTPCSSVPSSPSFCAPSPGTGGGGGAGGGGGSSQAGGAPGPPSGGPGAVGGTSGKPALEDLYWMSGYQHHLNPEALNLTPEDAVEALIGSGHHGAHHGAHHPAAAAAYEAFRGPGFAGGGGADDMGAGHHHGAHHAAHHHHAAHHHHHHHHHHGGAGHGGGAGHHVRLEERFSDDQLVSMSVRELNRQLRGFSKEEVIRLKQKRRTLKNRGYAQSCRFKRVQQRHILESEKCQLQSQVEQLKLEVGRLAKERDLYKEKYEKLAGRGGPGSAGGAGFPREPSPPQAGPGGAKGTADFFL

B1: insulin promoter -139 to -104 (C1 box) (dsDNA)
DNA 1: ATGGTCCGGAAATTGCAGCCTCAGCCCCCAGCCATC
DNA 2: GATGGCTGGGGGCTGAGGCTGCAATTTCCGGACCAT
As for B1, the binding result is reported as “binds”.
